Test results published in IntAct's records for PubMed 29039417.

B1: Protein PTHB1 (Homo sapiens), Q3SYG4 (parent)
chain: MSLFKARDWWSTILGDKEEFDQGCLCLANVDNSGNGQDKIIVGSFMGYLRIFSPHPAKTGDGAQAEDLLLEVDLRDPVLQVEVGKFVSGTEMLHLAVLHSRKLCVYSVSGTLGNVEHGNQCQMKLMYEHNLQRTACNMTYGSFGGVKGRDLICIQSMDGMLMVFEQESYAFGRFLPGFLLPGPLAYSSRTDSFLTVSSCQQVESYKYQVLAFATDADKRQETEQQKLGSGKRLVVDWTLNIGEQALDICIVSFNQSASSVFVLGERNFFCLKDNGQIRFMKKLDWSPSCFLPYCSVSEGTINTLIGNHNNMLHIYQDVTLKWATQLPHIPVAVRVGCLHDLKGVIVTLSDDGHLQCSYLGTDPSLFQAPNVQSRELNYDELDVEMKELQKIIKDVNKSQGVWPMTEREDDLNVSVVVSPNFDSVSQATDVEVGTDLVPSVTVKVTLQNRVILQKAKLSVYVQPPLELTCDQFTFEFMTPDLTRTVSFSVYLKRSYTPSELEGNAVVSYSRPTDRNPDGIPRVIQCKFRLPLKLICLPGQPSKTASHKITIDTNKSPVSLLSLFPGFASQSDDDQVNVMGFHFLGGARITVLASKTSQRYRIQSEQFEDLWLITNELILRLQEYFEKQGVKDFACSFSGSIPLQEYFELIDHHFELRINGEKLEELLSERAVQFRAIQRRLLARFKDKTPAPLQHLDTLLDGTYKQVIALADAVEENQGNLFQSFTRLKSATHLVILLIALWQKLSADQVAILEAAFLPLQEDTQELGWEETVDAAISHLLKTCLSKSSKEQALNLNSQLNIPKDTSQLKKHITLLCDRLSKGGRLCLSTDAAAPQTMVMPGGCTTIPESDLEERSVEQDSTELFTNHRHLTAETPRPEVSPLQGVSE
partner: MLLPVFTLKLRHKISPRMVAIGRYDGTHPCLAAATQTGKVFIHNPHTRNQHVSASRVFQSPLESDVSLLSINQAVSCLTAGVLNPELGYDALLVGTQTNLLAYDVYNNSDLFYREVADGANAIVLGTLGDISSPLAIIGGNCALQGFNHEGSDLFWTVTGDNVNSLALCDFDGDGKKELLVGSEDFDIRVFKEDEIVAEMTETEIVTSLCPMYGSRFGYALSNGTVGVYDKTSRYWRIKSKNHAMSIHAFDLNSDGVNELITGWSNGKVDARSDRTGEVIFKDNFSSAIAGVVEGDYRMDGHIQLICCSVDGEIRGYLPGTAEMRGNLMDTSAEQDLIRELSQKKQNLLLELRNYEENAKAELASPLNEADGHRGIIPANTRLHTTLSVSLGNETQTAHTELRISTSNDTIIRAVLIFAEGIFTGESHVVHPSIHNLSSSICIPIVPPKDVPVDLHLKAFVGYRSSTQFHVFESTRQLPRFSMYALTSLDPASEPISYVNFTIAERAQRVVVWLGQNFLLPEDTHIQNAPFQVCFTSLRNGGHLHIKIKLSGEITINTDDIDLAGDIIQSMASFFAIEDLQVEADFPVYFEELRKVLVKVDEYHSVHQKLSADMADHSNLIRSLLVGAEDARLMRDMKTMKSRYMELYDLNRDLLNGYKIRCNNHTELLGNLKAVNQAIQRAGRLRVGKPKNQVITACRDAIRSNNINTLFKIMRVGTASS

Variants of: B1
Conditions: with bbs2_human BBS2, Q9BXC9
In the case of S603E, the “effect of a mutation on the interaction” value is reported as “with no effect”. I548K was tested, and the “effect of a mutation on the interaction” value was “with no effect”. In the case of V461E, the “effect of a mutation on the interaction” value is reported as “with no effect”. In the case of A833S, the “effect of a mutation on the interaction” value is reported as “disrupting interaction strength”. With A833K the “effect of a mutation on the interaction” value was “with no effect”. For L666E, the “effect of a mutation on the interaction” value was “with no effect”. With T688K the “effect of a mutation on the interaction” value was “with no effect”. With I519E the “effect of a mutation on the interaction” value was “with no effect”. In the case of S498K, the “effect of a mutation on the interaction” value is reported as “with no effect”. For S498E, the “effect of a mutation on the interaction” value was “with no effect”. A708K was tested, and the “effect of a mutation on the interaction” value was “with no effect”. For S509E, the “effect of a mutation on the interaction” value was “with no effect”. In the case of S777A, the “effect of a mutation on the interaction” value is reported as “with no effect”. C634A was tested, and the “effect of a mutation on the interaction” value was “with no effect”. With M578E the “effect of a mutation on the interaction” value was “with no effect”. With L784A the “effect of a mutation on the interaction” value was “with no effect”. D422E was tested, and the “effect of a mutation on the interaction” value was “with no effect”. For S414A, the “effect of a mutation on the interaction” value was “with no effect”. In the case of L446E, the “effect of a mutation on the interaction” value is reported as “with no effect”. R679K was tested, and the “effect of a mutation on the interaction” value was “with no effect”. In the case of V772K, the “effect of a mutation on the interaction” value is reported as “with no effect”. For K547A, the “effect of a mutation on the interaction” value was “with no effect”. With M837E the “effect of a mutation on the interaction” value was “with no effect”. For Q426A, the “effect of a mutation on the interaction” value was “with no effect”. N658A was tested, and the “effect of a mutation on the interaction” value was “with no effect”. With P556E the “effect of a mutation on the interaction” value was “with no effect”. With D470K the “effect of a mutation on the interaction” value was “with no effect”. With Q807A the “effect of a mutation on the interaction” value was “with no effect”. In the case of Q453K, the “effect of a mutation on the interaction” value is reported as “with no effect”. T589S was tested, and the “effect of a mutation on the interaction” value was “disrupting interaction strength”. T697A was tested, and the “effect of a mutation on the interaction” value was “with no effect”. In the case of D480K, the “effect of a mutation on the interaction” value is reported as “with no effect”. With D517K the “effect of a mutation on the interaction” value was “with no effect”. L452E was tested, and the “effect of a mutation on the interaction” value was “with no effect”. V413A was tested, and the “effect of a mutation on the interaction” value was “with no effect”. V413K was tested, and the “effect of a mutation on the interaction” value was “with no effect”. For S849A, the “effect of a mutation on the interaction” value was “with no effect”. In the case of L591E, the “effect of a mutation on the interaction” value is reported as “with no effect”. G718A was tested, and the “effect of a mutation on the interaction” value was “with no effect”. In the case of Q705A, the “effect of a mutation on the interaction” value is reported as “with no effect”. I612A was tested, and the “effect of a mutation on the interaction” value was “with no effect”. I801E was tested, and the “effect of a mutation on the interaction” value was “with no effect”. For Q798E, the “effect of a mutation on the interaction” value was “with no effect”. For D435A, the “effect of a mutation on the interaction” value was “with no effect”. For E857A, the “effect of a mutation on the interaction” value was “with no effect”. For W768A, the “effect of a mutation on the interaction” value was “with no effect”. For P419K, the “effect of a mutation on the interaction” value was “with no effect”. For D696E, the “effect of a mutation on the interaction” value was “with no effect”. For P847E, the “effect of a mutation on the interaction” value was “with no effect”. In the case of H546E, the “effect of a mutation on the interaction” value is reported as “with no effect”. In the case of H546K, the “effect of a mutation on the interaction” value is reported as “with no effect”. A633V was tested, and the “effect of a mutation on the interaction” value was “disrupting interaction strength”. With N794E the “effect of a mutation on the interaction” value was “with no effect”. For P641K, the “effect of a mutation on the interaction” value was “with no effect”. In the case of E765K, the “effect of a mutation on the interaction” value is reported as “with no effect”. For S418K, the “effect of a mutation on the interaction” value was “with no effect”. N576E was tested, and the “effect of a mutation on the interaction” value was “with no effect”. With P540K the “effect of a mutation on the interaction” value was “with no effect”. Q717A was tested, and the “effect of a mutation on the interaction” value was “with no effect”. N553E was tested, and the “effect of a mutation on the interaction” value was “with no effect”. L491A was tested, and the “effect of a mutation on the interaction” value was “with no effect”. With A746E the “effect of a mutation on the interaction” value was “with no effect”. In the case of L655K, the “effect of a mutation on the interaction” value is reported as “with no effect”. For Q791L, the “effect of a mutation on the interaction” value was “disrupting interaction strength”. Q791A was tested, and the “effect of a mutation on the interaction” value was “with no effect”. N719E was tested, and the “effect of a mutation on the interaction” value was “with no effect”. For A455E, the “effect of a mutation on the interaction” value was “with no effect”. In the case of R818K, the “effect of a mutation on the interaction” value is reported as “with no effect”. With R818E the “effect of a mutation on the interaction” value was “with no effect”. R868E was tested, and the “effect of a mutation on the interaction” value was “with no effect”. With V590E the “effect of a mutation on the interaction” value was “with no effect”. In the case of T468A, the “effect of a mutation on the interaction” value is reported as “with no effect”. In the case of G842E, the “effect of a mutation on the interaction” value is reported as “with no effect”. With H778K the “effect of a mutation on the interaction” value was “with no effect”. With F582A the “effect of a mutation on the interaction” value was “with no effect”. E622A was tested, and the “effect of a mutation on the interaction” value was “with no effect”. For L851A, the “effect of a mutation on the interaction” value was “with no effect”. With T782A the “effect of a mutation on the interaction” value was “with no effect”. For V879A, the “effect of a mutation on the interaction” value was “with no effect”. For P464A, the “effect of a mutation on the interaction” value was “with no effect”. With L808A the “effect of a mutation on the interaction” value was “with no effect”. In the case of L733E, the “effect of a mutation on the interaction” value is reported as “with no effect”. In the case of R587T, the “effect of a mutation on the interaction” value is reported as “disrupting interaction strength”. With R587K the “effect of a mutation on the interaction” value was “with no effect”. In the case of F724E, the “effect of a mutation on the interaction” value is reported as “with no effect”. With S637K the “effect of a mutation on the interaction” value was “with no effect”. With N796A the “effect of a mutation on the interaction” value was “with no effect”. For L531A, the “effect of a mutation on the interaction” value was “with no effect”. For N503A, the “effect of a mutation on the interaction” value was “with no effect”. K594A was tested, and the “effect of a mutation on the interaction” value was “with no effect”. In the case of P520E, the “effect of a mutation on the interaction” value is reported as “with no effect”. In the case of Q539E, the “effect of a mutation on the interaction” value is reported as “with no effect”.
